In patent US20100136007A1 (Five Prime, published 2010):

Target: T1, hCSF1R-ECD.506 (human, UniProt P07333 20-506)
T1 construct: also called hCSF1R.506; human CSF1R.506
Experiment: SPR, Biacore
Method: The CSF1 and IL34 ligand binding affinity and kinetics of the hCSF1R.506-GS-Fc and hCSF1R.512-GS-Fc fusion proteins were determined using Biacore® X surface plasmon resonance (SPR) technology (Uppsala, Sweden). CSF1 and IL34 are the only two ligands known to interact with the CSF1R ECD. The CSF1 and IL34 binding experiments were carried out using methodology similar to that described in Lin et al., Science 320:807-811, (2008).
In order to compare the relative ligand binding affinity of hCSF1R.506 (SEQ ID NO:2) and hCSF1R.506-Fc (SEQ ID NO:6) proteins expressed in CHO cells to CSF1, a Biacore® assay was used.

T1 sequence (P07333 20-506 limits assumed): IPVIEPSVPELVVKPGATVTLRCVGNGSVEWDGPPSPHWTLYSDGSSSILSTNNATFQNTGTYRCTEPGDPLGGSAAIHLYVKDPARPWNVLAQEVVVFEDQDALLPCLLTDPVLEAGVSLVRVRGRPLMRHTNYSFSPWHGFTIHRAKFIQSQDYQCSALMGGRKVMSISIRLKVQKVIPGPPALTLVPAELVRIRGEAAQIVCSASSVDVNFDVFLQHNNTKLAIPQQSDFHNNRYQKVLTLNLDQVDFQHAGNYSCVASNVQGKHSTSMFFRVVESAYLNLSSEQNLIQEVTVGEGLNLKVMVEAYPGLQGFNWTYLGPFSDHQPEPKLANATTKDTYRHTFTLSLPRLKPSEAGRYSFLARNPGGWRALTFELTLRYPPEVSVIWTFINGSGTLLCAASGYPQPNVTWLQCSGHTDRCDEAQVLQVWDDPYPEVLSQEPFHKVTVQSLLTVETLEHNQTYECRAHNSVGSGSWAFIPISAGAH

- Kd: 28.9 nM
- koff: 0.000809 s⁻¹
- kon: 28000 M⁻¹ s⁻¹
B1: colony stimulating factor 1 ligand (CSF1) (ligand, UniProt P09603 33-190, looked up)
chain: EEVSEYCSHMIGSGHLQSLQRLIDSQMETSCQITFEFVDQEQLKDPVCYLKKAFLLVQDIMEDTMRFRDNTPNAIAIVQLQELSLRLKSCFTKDYEEHDKACVRTFYETPLQLLEKVKNVFNETKNLLDKDWNIFSKNCNNSFAECSSQDVVTKPDCN
notes: also called MCSF; MGC31930
